B1: library; numbered along this chain (parent)
chain: MAAAGGARLLRAASAVLGGPAGRWLHHAGSRAGSSGLLRNRGPGGSAEASRSLSVSARARSSSEDKITVHFINRDGETLTTKGKVGDSLLDVVVENNLDIDGFGACEGTLACSTCHLIFEDHIYEKLDAITDEENDMLDLAYGLTDRSRLGCQICLTKSMDNMTVRVPETVADARQSIDVGKTS

Variants of: B1
Test: scaled log2 fold change in cell abundance, elesclomol vs control (0 = silent mean, 1 = nonsense mean) (scaled log2 ratio); higher = higher viability under elesclomol (loss of FDX1 cuproptosis function)
Conditions: glucose 10 mM
Procedure: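 Deep mutational scan of full-length human FDX1: a pooled saturation-mutagenesis ORF library (every residue 2-184 mutated to all 19 amino acids plus stop, and silent codons where available) was expressed by lentivirus in FDX1-knockout ABC1 (14 days) or HEK293T (11 days) cells grown with elesclomol (ES) or DMSO control. Variant abundance came from ORF sequencing. The log2 fold change (ES vs control, mean of duplicates) was centred on the silent-variant mean (0) and scaled to the nonsense-variant mean (1). Higher values mean greater viability under ES, i.e. loss of FDX1 function in cuproptosis.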

[1] = with ABC1 FDX1 KO, elesclomol 5 nM, 14 days
[2] = with HEK293T FDX1 KO, elesclomol 40 nM, 11 days
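Further: variant abundance is its share of total variant reads in each endpoint sample, from next-generation sequencing of the integrated ORF PCR-amplified out of genomic DNA.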

Variant	scaled log2 fold change [1]	scaled log2 fold change [2]
S50R	-0.0286	0.0212
S50T	0.208	
S50W	-0.149	
S50Y	-0.231	0.499
R51A	0.176	-0.204
R51C	0.374	-0.169
R51D	-0.0949	-0.181
R51E	-0.316	-0.168
R51F	0.269	0.664
R51G	0.508	-0.712
R51H	-0.0671	-0.14
R51K	-0.103	-1.33
R51L	0.0529	-0.247
R51M	-0.235	
R51N	-0.079	1.03
R51P	0.212	
R51Q	-1.02	-0.603
R51S	0.00287	-0.516
R51T	0.0589	0.546
R51V	-0.873	-0.419
R51W	0.239	1.75
R51Y	0.343	-0.174
S52A	0.665	0.164
S52C	0.431	-0.0215
S52D	0.202	0.946

Variant	scaled log2 fold change [1]	scaled log2 fold change [2]
S52E	0.648	0.0946
S52F	0.556	
S52G	0.447	-0.133
S52H	-0.197	0.41
S52I	-0.0467	-0.248
S52K	0.174	-1.31
S52L	0.253	-0.651
S52M	0.212	-0.953
S52N	-0.0586	-0.095
S52P	-0.128	
S52Q	0.212	1.17
S52R	0.143	-1.18
S52T	-0.921	-0.112
S52V	-0.785	-0.177
S52W	0.257	-0.162
S52Y	0.285	0.0679
L53A	0.205	0.346
L53C	0.0732	-0.0888
L53D	-0.0291	
L53E	0.206	-0.803
L53F	0.298	-0.0243
L53G	-0.239	-1.17
L53H	0.262	-0.0475
L53I	-1.25	
L53K	0.299	0.00452

Variant	scaled log2 fold change [1]	scaled log2 fold change [2]
L53M	0.133	0.406
L53N	0.146	
L53P	0.118	
L53Q	-0.164	
L53R	0.0529	-0.455
L53S	-0.175	0.73
L53T	0.163	-0.488
L53V	0.281	-0.11
L53W	0.155	0.498
L53Y	-0.194	-0.569
S54A	0.19	-0.116
S54C	-0.019	-0.176
S54D	-0.0274	-0.0231
S54E	-0.297	0.751
S54F	0.138	0.0641
S54G	-0.1	-0.00382
S54H	-0.807	
S54I	0.459	
S54K	-0.175	-1
S54L	-0.261	-0.248
S54M	-0.399	0.147
S54N	-0.135	-0.939
S54P	0.151	-0.0299
S54Q	0.175	1.12
S54R	0.322	-0.406

Variant	scaled log2 fold change [1]	scaled log2 fold change [2]
S54T	0.484	-0.46
S54V	-0.108	-1.29
S54W	0.208	-0.341
S54Y	-0.0125	-0.0955
V55C	0.313	0.374
V55D	-0.0142	
V55E	-0.307	
V55F	0.0901	-0.339
V55G	0.169	-0.106
V55H	0.0403	1.23
V55I	0.323	1.26
V55K	-0.469	-0.443
V55L	-0.283	
V55M	0.374	0.955
V55N	-0.28	0.815
V55P	-0.481	1.06
V55Q	0.177	-0.526
V55R	0.114	0.865
V55S	0.162	-0.104
V55T	0.178	-0.356
V55W	0.0864	-0.549
V55Y	0.0351	
S56A	0.574	
S56C	-0.222	-0.162
S56D	-0.745	0.383

Variant	scaled log2 fold change [1]	scaled log2 fold change [2]
S56E	0.234	0.0723
S56F	0.177	
S56G	-1.11	0.888
S56H	0.238	0.979
S56I	-0.125	-0.305
S56K	-0.052	0.357
S56L	0.557	1.06
S56M	-0.109	0.0191
S56N	0.0549	1.09
S56P	0.19	
S56Q	-0.214	0.782
S56R	0.43	
S56T	0.0393	1.19
S56V	0.301	-0.368
S56W	-0.00445	0.0272
S56Y	-0.541	0.934
A57C	0.479	
A57D	0.102	-0.382
A57E	-0.0705	-0.933
A57F	-0.681	-0.202
A57G	-0.0446	1.2
A57H	0.158	-0.799
A57I	0.296	
A57K	0.162	-1.1
A57L	-0.263	0.149

Variant	scaled log2 fold change [1]	scaled log2 fold change [2]
A57M	-0.0569	-0.0232
A57N	0.029	0.245
A57Q	0.12	-0.354
A57R	0.224	0.591
A57S	0.247	0.0851
A57T	0.0138	-0.39
A57V	-0.164	0.356
A57W	-0.231	0.0227
A57Y	-0.233	0.129
R58A	0.173	0.434
R58C	0.0658	-0.099
R58D	-0.139	-0.303
R58E	-0.288	-0.142
R58F	-0.105	-0.229
R58G	-0.484	0.743
R58H	0.4	-0.194
R58I	-0.339	0.608
R58K	0.151	-0.231
R58L	-0.211	0.174
R58M	0.306	-0.781
R58N	-0.417	-0.0662
R58P	0.228	0.00503
R58Q	0.0532	-0.891
R58S	0.12	-0.815
R58T	-0.167	-0.0694

Variant	scaled log2 fold change [1]	scaled log2 fold change [2]
R58V	0.434	1.47
R58W	0.133	0.3
R58Y	-0.339	-0.258
A59C	-0.665	0.732
A59D	-0.0282	0.274
A59E	-0.245	0.171
A59F	0.319	-0.721
A59G	-0.424	-0.916
A59H	-0.614	
A59I	0.202	0.473
A59K	-0.0687	-0.733
A59L	-0.434	0.562
A59M	-0.0959	-0.108
A59N	-0.132	0.117
A59P	-0.0792	
A59Q	0.564	-0.702
A59R	-0.761	-0.456
A59S	0.217	0.732
A59T	0.332	-0.0311
A59V	-0.507	0.0474
A59W	0.216	0.283
A59Y	0.0878	-0.306
R60A	0.137	
R60C	0.327	-0.517
R60E	-0.329	0.272

Variant	scaled log2 fold change [1]	scaled log2 fold change [2]
R60F	0.0888	-0.201
R60G	-0.278	-0.224
R60H	-0.288	-0.116
R60I	0.0411	
R60K	-0.27	
R60L	0.042	-0.384
R60M	-0.213	0.72
R60N	-0.096	0.128
R60P	-0.332	0.626
R60Q	-0.0931	-0.217
R60S	0.275	0.216
R60T	-0.956	-0.542
R60V	0.116	
R60W	-0.217	0.972
R60Y	0.215	0.0482
S61D	1.01	1.93
S61E	0.468	
S61F	-0.102	
S61G	-0.405	
S61I	-0.527	
S61K	-0.0816	
S61M	0.184	
S61N	-0.737	-0.556
S61Q	0.577	
S61R	-0.524	

Variant	scaled log2 fold change [1]	scaled log2 fold change [2]
S61V	0.78	
S61W	-0.113	0.846
S61Y	0.603	1.51
S62A	-0.86	-0.876
S62C	-0.366	-0.138
S62D	0.269	1.05
S62E	0.0386	
S62F	0.075	0.425
S62G	-0.00606	0.141
S62H	-0.223	0.729
S62I	0.0619	-0.0402
S62K	0.104	1.13
S62L	0.0177	0.0918
S62M	0.0792	
S62N	0.0847	-0.479
S62Q	0.0996	0.145
S62R	-0.893	0.128
S62T	-0.0712	-0.205
S62W	-0.132	
S62Y	-0.427	
S63A	0.227	0.763
S63C	0.302	-0.446
S63D	-0.272	-0.143
S63E	0.199	-0.451
S63F	0.0355	-0.0458

Variant	scaled log2 fold change [1]	scaled log2 fold change [2]
S63G	0.283	0.000639
S63H	0.197	0.218
S63I	-1.11	0.315
S63K	0.173	-0.352
S63L	0.0558	-0.251
S63M	0.124	-0.609
S63N	-0.0613	-0.00891
S63P	0.175	0.000753
S63Q	-0.105	0.797
S63R	0.598	-0.598
S63T	0.0678	-0.0954
S63V	0.189	0.0727
S63W	0.527	0.0977
S63Y	0.0691	0.7
E64A	-0.335	1.19
E64C	-0.0781	0.793
E64D	0.0681	-0.0197
E64F	0.0956	
E64G	-0.323	0.0488
